According to patent EP4574169A1:
Where two headings read alike, the source gives them in different places.

Columns and labels:
ACE2 [1] = molecular target: ACE2
ACE2 [2] = experiment: ratio of ACE2 binding ELISA to Spike RBD detection ELISA; concentrated supernatant of virus-infected Vero cells
ACE2 [3] = experiment: ACE2 binding detection ELISA (ACE2 on solid phase, detection with anti-spikeRBD antibody); concentrated supernatant of virus-infected Vero cells

Row | Substance | ACE2 bind (ACE2 [1]) | ACE2 bind/ Spike RBD (ACE2 [1]) | ACE2 bind/ Spike RBD (ACE2 [2]) | ACE2 bind (ACE2 [3])
1 | Cov2STH (polypeptide C: mu-phosphatase leader, extracellular region (ECD) of the spike protein, PP m (from UniProt P0DTC2 16-1213) | 202 ng/mL | 2.3 | 6.5 | 19.8 ng/mL
2 | Cov2SPPF (polypeptide B: structure of A with further deletion of the furin cleavage site, R683A R685 (from UniProt P0DTC2 14-1273) | 7 ng/mL | 0.076 | 0.094 | 0.5 ng/mL
